Patent US20170313756A1 (Sanofi, published 2017)
[ ]: non-standard residue; d: D form. The star is where a group is joined. Butanoyl(4-Ph) = O=C(CCCc1ccccc1)*; Stearyl = stearyl group

What was measured:
[1] = target: mouse MC1R (on murine B16-F1 melanoma cells) (mouse, UniProt Q01727 1-315); assay: cell-based or functional assay
[2] = target: T1, melanocortin 3 receptor (MC3R) (UniProt P41968 1-323, limits assumed); assay: 125I-NDP-MSH competition, HEK293 membranes
T1 construct: whole, on cells; Membrane preparations; also called MCR-3
From the text: (§1) The mixtures were filtered through 96-well GFC filters (Millipore, Billerica, Mass.), washed 3 times with binding buffer without BSA, dried and counted.

[3] = target: T2, melanocortin 1 receptor (MC1R) (UniProt Q01726 1-317, limits assumed); assay: 125I-NDP-MSH competition, HEK293 membranes
T2 construct: whole, on cells; Used as membrane preparations, not whole cells; also called MCR-1; MCR1
From the text: as §1

[4] = target: T3, melanocortin 5 receptor (MC5R) (UniProt P33032 1-325, limits assumed); assay: 125I-NDP-MSH competition, HEK293 membranes
T3 construct: whole, on cells; Membrane preparations; also called MCR-5
T3 sequence (P33032 whole entry): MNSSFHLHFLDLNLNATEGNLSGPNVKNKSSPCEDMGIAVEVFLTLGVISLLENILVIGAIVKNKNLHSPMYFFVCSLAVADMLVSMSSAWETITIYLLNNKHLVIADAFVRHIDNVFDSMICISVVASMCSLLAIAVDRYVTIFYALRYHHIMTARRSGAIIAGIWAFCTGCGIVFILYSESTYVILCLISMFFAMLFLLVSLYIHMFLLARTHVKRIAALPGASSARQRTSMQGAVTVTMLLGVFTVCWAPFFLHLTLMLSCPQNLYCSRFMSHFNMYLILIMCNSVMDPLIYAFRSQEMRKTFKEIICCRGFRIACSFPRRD
From the text: as §1

T2 sequence (Q01726 whole entry): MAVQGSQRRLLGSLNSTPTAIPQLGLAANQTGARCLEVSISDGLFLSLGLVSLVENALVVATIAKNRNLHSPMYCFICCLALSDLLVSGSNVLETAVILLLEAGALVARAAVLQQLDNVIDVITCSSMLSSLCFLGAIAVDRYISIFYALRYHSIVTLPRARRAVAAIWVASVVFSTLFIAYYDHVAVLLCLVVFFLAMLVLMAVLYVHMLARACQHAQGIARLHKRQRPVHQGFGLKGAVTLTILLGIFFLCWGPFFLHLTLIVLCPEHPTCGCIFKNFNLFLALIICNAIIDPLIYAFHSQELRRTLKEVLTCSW
mouse MC1R (on murine B16-F1 melanoma cells), sequence (Q01727 whole entry): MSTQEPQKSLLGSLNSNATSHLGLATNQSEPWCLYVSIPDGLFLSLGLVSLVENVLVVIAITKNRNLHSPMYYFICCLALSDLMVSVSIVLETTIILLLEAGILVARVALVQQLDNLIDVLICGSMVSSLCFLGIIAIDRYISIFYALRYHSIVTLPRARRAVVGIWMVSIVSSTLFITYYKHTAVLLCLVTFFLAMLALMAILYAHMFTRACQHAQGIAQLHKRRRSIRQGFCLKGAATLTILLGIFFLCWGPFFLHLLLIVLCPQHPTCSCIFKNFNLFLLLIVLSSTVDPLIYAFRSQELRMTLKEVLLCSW
T1 sequence (P41968 whole entry): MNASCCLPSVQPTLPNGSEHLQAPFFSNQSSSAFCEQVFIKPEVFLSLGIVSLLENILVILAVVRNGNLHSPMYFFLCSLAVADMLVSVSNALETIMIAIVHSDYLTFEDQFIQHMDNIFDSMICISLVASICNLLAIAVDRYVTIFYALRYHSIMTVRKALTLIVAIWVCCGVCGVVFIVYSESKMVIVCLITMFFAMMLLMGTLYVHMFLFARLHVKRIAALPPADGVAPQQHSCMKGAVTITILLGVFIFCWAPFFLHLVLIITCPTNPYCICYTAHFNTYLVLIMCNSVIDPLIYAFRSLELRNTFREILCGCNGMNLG

B1: peptide 869 (peptide)
peptide: VPKGWRXHEMSYS
modifications: N-terminal acetyl (Ac); C-terminal amide; D-cyclohexylalanine (D-Cha) at 7; D-isomers at all residues except Gly 4
EC50, cAMP in B16-F1 cells [1]: 14 nM

B2: peptide 893 (peptide)
peptide: VPKGWRFHEMSYS
modifications: N-terminal acetyl (Ac); C-terminal amide; L-Trp at 5; D-isomers at all other residues except Gly 4
EC50, cAMP in B16-F1 cells [1]: 270 nM

B3: peptide 886 (peptide)
peptide: Ac-[dV][dP][dK]G[dW][dR][dF][dH][dS][dI][dI][dS][dS]-NH2
SMILES: CC[C@@H](C)[C@@H](NC(=O)[C@@H](CO)NC(=O)[C@@H](Cc1c[nH]cn1)NC(=O)[C@@H](Cc1ccccc1)NC(=O)[C@@H](CCCNC(=N)N)NC(=O)[C@@H](Cc1c[nH]c2ccccc12)NC(=O)CNC(=O)[C@@H](CCCCN)NC(=O)[C@H]1CCCN1C(=O)[C@H](NC(C)=O)C(C)C)C(=O)N[C@@H](C(=O)N[C@H](CO)C(=O)N[C@H](CO)C(N)=O)[C@H](C)CC
EC50, cAMP in B16-F1 cells [1]: 2 nM

B4: peptide 878 (peptide)
peptide: VPKGWRFHEXSYS
modifications: N-terminal acetyl (Ac); C-terminal amide; D-buthionine at 10; D-isomers at all residues except Gly 4
EC50, cAMP in B16-F1 cells [1]: 130 nM

B5: peptide 880 (peptide)
peptide: Ac-[dV][dP][dK]G[dW][dR]F[dH][dS][dI][dI][dS][dS]-NH2
SMILES: CC[C@@H](C)[C@@H](NC(=O)[C@@H](CO)NC(=O)[C@@H](Cc1c[nH]cn1)NC(=O)[C@H](Cc1ccccc1)NC(=O)[C@@H](CCCNC(=N)N)NC(=O)[C@@H](Cc1c[nH]c2ccccc12)NC(=O)CNC(=O)[C@@H](CCCCN)NC(=O)[C@H]1CCCN1C(=O)[C@H](NC(C)=O)C(C)C)C(=O)N[C@@H](C(=O)N[C@H](CO)C(=O)N[C@H](CO)C(N)=O)[C@H](C)CC
EC50, cAMP in B16-F1 cells [1]: 23 nM

B6: peptide 890 (peptide)
peptide: VPKGWRXHEXSYS
modifications: N-terminal acetyl (Ac); C-terminal amide; D-Cha at 7; D-buthionine at 10; D-isomers at all residues except Gly 4
EC50, cAMP in B16-F1 cells [1]: 3600 nM

B7: retro-inverso α-MSH (peptide)
peptide: VPKGWRFHEMSYS
modifications: N-terminal acetyl (Ac); C-terminal amide; D-isomers at all residues except Gly 4
EC50, cAMP in B16-F1 cells [1]: 9700 nM

B8: peptide 895 (peptide)
peptide: VPKGWRFHEMSYS
modifications: N-terminal acetyl (Ac); C-terminal amide; L-His at 8; D-isomers at all other residues except Gly 4
EC50, cAMP in B16-F1 cells [1]: 300 nM

{Butanoyl(4-Ph)}-H[dF]RW-NH2 [(Ph(CH2)3CO) HfRW (819)]
Ki [2]: 277 nM
Ki [3]: 0.07 nM
Ki [4]: ~3000 nM

SYSMEHXRWGKPV (N-terminal acetyl (Ac); C-terminal amide; L-cyclohexylalanine (L-Cha) at 7, also called analog 892) [peptide 892]
Ki [3]: 0.51 nM
EC50, cAMP in B16-F1 cells [1]: 21 nM

Stearyl-H[dF]RW-NH2 [(Stearyl) HfRW (820)]
Ki [2]: 1370 nM
Ki [3]: 1.3 nM
Ki [4]: 860 nM

B9: peptide 894 (peptide)
peptide: VPKGWRFHEMSYS
modifications: N-terminal acetyl (Ac); C-terminal amide; L-Arg at 6; D-isomers at all other residues except Gly 4
EC50, cAMP in B16-F1 cells [1]: 212000 nM

B10: peptide 872 (peptide)
peptide: VPKGWRFREMSYS
modifications: N-terminal acetyl (Ac); C-terminal amide; D-isomers at all residues except Gly 4
EC50, cAMP in B16-F1 cells [1]: 2000 nM
